Measurements: patent US7067474B1, “Agents for treating human illnesses based on β-catenin, and the production and use thereof” (Max-Delbruck-Centrum fur Molekulare Medizin, priority 1998, dated 2006)

T1: APC (20 amino acid repeats) (Homo sapiens, UniProt P25054)
T1 construct: for the amino acids Ser1259Asp 1400 (APC 20 amino acid repeats); expressed in transfected cells; host or cells: yeast (two-hybrid, Matchmaker, Clontech)
T1 sequence (P25054 1253-1394 limits assumed): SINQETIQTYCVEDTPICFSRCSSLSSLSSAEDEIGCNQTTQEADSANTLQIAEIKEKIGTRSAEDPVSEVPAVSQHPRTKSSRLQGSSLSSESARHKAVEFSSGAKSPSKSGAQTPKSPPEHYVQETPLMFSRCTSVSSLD

T2: APC (15 amino acid repeats) (Homo sapiens, UniProt P25054)
T2 construct: of human APC for the amino acids His1012–Glu1215 (APC 15 amino acid repeats); expressed in transfected cells; host or cells: yeast (two-hybrid, Matchmaker, Clontech)
T2 sequence (P25054 1006-1209 limits assumed): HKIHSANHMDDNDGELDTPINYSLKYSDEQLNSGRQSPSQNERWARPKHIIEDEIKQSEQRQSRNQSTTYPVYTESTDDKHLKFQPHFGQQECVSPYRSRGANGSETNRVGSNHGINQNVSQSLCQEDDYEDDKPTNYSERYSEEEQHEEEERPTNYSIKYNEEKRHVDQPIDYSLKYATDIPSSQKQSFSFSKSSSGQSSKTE


How the values were obtained:
Assay type in all cases: binding
[1] = target: T3, LEF-1 (Mus musculus, UniProt P27782); assay: yeast 2-hybrid: interaction of β-catenin mutants with LEF-1; conditions: yeast 2-hybrid, alanine mutants
T3 construct: the cDNA of LEF-1 for the amino acids 1–99; expressed in transfected cells; host or cells: yeast (two-hybrid, Matchmaker, Clontech)
T3 sequence (P27782 1-99): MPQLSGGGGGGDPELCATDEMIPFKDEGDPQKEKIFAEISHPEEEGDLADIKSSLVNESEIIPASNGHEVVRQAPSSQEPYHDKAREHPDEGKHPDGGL
Description: (§1) The mutagenesis of β-catenin in the armadillo repeats 3–8 was carried out by means of the “mutagenesis kit” of the company Clontech according to the producer's record and the mutants were checked by sequencing (FIG. 5). In all mutants the original amino acid was substituted by alanine. For analyzing the interactions the cDNA of human β-catenin (armadillo repeat 3 up to the C-terminal end of the protein) coding for the amino acids Leu218–Leu7 μl or its mutants was cloned into the fusion vector for the activation domain of Gal-4 (pGAD424, Clontech). The cDNA for the binding domains of the interaction partners was cloned into the Lex-A fusion vector BTM 116. To this end, the cDNA of LEF-1 for the amino acids 1–99, conductin for the amino acids Ala342–ARG465; of human APC for the amino acids His1012–Glu1215 (APC 15 amino acid repeats) and for the amino acids Ser1259Asp 1400 (APC 20 amino acid repeats) and E-cadherin for the amino acids Gin773–Asp884 (cytoplasmatic domain) were amplified with the respective primers PCR. The interaction of the Lex-A hybrids with β-catenin and its mutants was quantified by means of the β-galactosidase reporter activity in the yeast 2-hybrid system (report: “Matchmaker”. Clontech) (Tab. 2 and FIG. 6).

[2] = target: T1, APC (20 amino acid repeats); assay: yeast 2-hybrid: interaction of β-catenin mutants with APC 20 amino acid repeats; conditions: for Interaction With APC-20, share of wild type β-catenin interaction: yeast 2-hybrid, alanine mutants
Description: as §1

[3] = target: T2, APC (15 amino acid repeats); assay: yeast 2-hybrid: interaction of β-catenin mutants with APC 15 amino acid repeats; conditions: yeast 2-hybrid, alanine mutants
Description: as §1

[4] = target: T4, conductin (Mus musculus, UniProt O88566); assay: yeast 2-hybrid: interaction of β-catenin mutants with conductin; conditions: for Interaction With Conductin, share of wild type β-catenin interaction: yeast 2-hybrid, alanine mutants; for interaction with conductin: β-catenin mutation, in words
T4 construct: conductin for the amino acids Ala342–ARG465; expressed in transfected cells; host or cells: yeast (two-hybrid, Matchmaker, Clontech)
T4 sequence (O88566 343-465 limits assumed): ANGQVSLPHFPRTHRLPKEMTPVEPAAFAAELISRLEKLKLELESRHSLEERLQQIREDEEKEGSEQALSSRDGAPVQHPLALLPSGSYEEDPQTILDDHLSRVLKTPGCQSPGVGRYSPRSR
Description: as §1

[5] = target: T5, E-cadherin (Mus musculus, UniProt P09803); assay: yeast 2-hybrid: interaction of β-catenin mutants with E-cadherin; conditions: alanine mutants
T5 construct: E-cadherin for the amino acids Gin773–Asp884 (cytoplasmatic domain); expressed in transfected cells; host or cells: yeast (two-hybrid, Matchmaker, Clontech)
T5 sequence (P09803 773-884): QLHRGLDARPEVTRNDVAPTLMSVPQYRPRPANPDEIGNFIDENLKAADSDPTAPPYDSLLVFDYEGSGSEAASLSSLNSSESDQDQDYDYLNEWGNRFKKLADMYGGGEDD
Description: as §1

Row | Interaction With APC-20, share of wild type β-catenin interaction [2] | interaction with APC 20aa ([2]; β-catenin mutation, in words) | Interaction With Conductin, share of wild type β-catenin interaction [4] | interaction with conductin [4] | Molecule | Interaction With LEF-1, share of wild type β-catenin interaction [1] | Interaction With APC-15, share of wild type β-catenin interaction [3] | Interaction With E-Cadherin, share of wild type β-catenin interaction [5]
1 | 40% | – | 17% | no interaction with conductin | Phe 253: human β-catenin mutant, Phe 253 substituted by alanine (arm 3) (protein, left off: large carriers; small tags and cut ends) LHNLSHHREGLLAIFKSGGIPALVKMLGSPVDSVLAYAITTLHNLLLHQEGAKMAVRLAGGLQKMVALLNKTNVKFLAITTDCLQILAYGNQESKLIILASGGPQALVNIMRTYTYEKLLWTTSRVLKVLSVCSSNKPAIVEAGGMQALGLHLTDPSQRLVQNCLWTLRNLSDAATKQEGMEGLLGTLVQLLGSDDINVVTCAAGILSNLTCNNYKNKMMVCQVGGIEALVRTVLRAGDREDITEPAICALRHLTSRHQEAEMAQNAVRLHYGLPVVVKLLHPPSHWPLIKATVGLIRNLALCPANHAPLREQGAIPRLVQLLVRAHQDTQRRTSMGGTQQQFVEGVRMEEIVEGCTGALHILARDVHNRIVIRGLNTIPLFVQLLYSPIENIQRVAAGVLCELAQDKEAAEAIEAEGATAPLTELLHSRNEGVATYAAAVLFRMSEDKPQDYKKRLSVELTSSLFRTEPMAWNETADLGLDIGAQGEPLGYRQDDPSYRSFHSGGYGQDALGMDPMMEHEMGGHHPGADYPVDGLPDLGHAQDLMDGLPPGDSNQLAWFDTDL | — (Interactions marked by — correspond to 60–100% of the wild type interaction) | — (Interactions marked by — correspond to 60–100% of the wild type interaction) | — (Interactions marked by — correspond to 60–100% of the wild type interaction)
2 | 55% | – | 20% | no interaction with conductin | Trp 338: human β-catenin mutant, Trp 338 substituted by alanine (arm 5) (protein, left off: large carriers; small tags and cut ends) LHNLSHHREGLLAIFKSGGIPALVKMLGSPVDSVLFYAITTLHNLLLHQEGAKMAVRLAGGLQKMVALLNKTNVKFLAITTDCLQILAYGNQESKLIILASGGPQALVNIMRTYTYEKLLATTSRVLKVLSVCSSNKPAIVEAGGMQALGLHLTDPSQRLVQNCLWTLRNLSDAATKQEGMEGLLGTLVQLLGSDDINVVTCAAGILSNLTCNNYKNKMMVCQVGGIEALVRTVLRAGDREDITEPAICALRHLTSRHQEAEMAQNAVRLHYGLPVVVKLLHPPSHWPLIKATVGLIRNLALCPANHAPLREQGAIPRLVQLLVRAHQDTQRRTSMGGTQQQFVEGVRMEEIVEGCTGALHILARDVHNRIVIRGLNTIPLFVQLLYSPIENIQRVAAGVLCELAQDKEAAEAIEAEGATAPLTELLHSRNEGVATYAAAVLFRMSEDKPQDYKKRLSVELTSSLFRTEPMAWNETADLGLDIGAQGEPLGYRQDDPSYRSFHSGGYGQDALGMDPMMEHEMGGHHPGADYPVDGLPDLGHAQDLMDGLPPGDSNQLAWFDTDL | — (Interactions marked by — correspond to 60–100% of the wild type interaction) | — (Interactions marked by — correspond to 60–100% of the wild type interaction) | — (Interactions marked by — correspond to 60–100% of the wild type interaction)
3 | 28% | – | 5% | – | Lys 292: human β-catenin mutant, Lys 292 substituted by alanine (arm 4) (protein, left off: large carriers; small tags and cut ends) LHNLSHHREGLLAIFKSGGIPALVKMLGSPVDSVLFYAITTLHNLLLHQEGAKMAVRLAGGLQKMVALLNKTNVAFLAITTDCLQILAYGNQESKLIILASGGPQALVNIMRTYTYEKLLWTTSRVLKVLSVCSSNKPAIVEAGGMQALGLHLTDPSQRLVQNCLWTLRNLSDAATKQEGMEGLLGTLVQLLGSDDINVVTCAAGILSNLTCNNYKNKMMVCQVGGIEALVRTVLRAGDREDITEPAICALRHLTSRHQEAEMAQNAVRLHYGLPVVVKLLHPPSHWPLIKATVGLIRNLALCPANHAPLREQGAIPRLVQLLVRAHQDTQRRTSMGGTQQQFVEGVRMEEIVEGCTGALHILARDVHNRIVIRGLNTIPLFVQLLYSPIENIQRVAAGVLCELAQDKEAAEAIEAEGATAPLTELLHSRNEGVATYAAAVLFRMSEDKPQDYKKRLSVELTSSLFRTEPMAWNETADLGLDIGAQGEPLGYRQDDPSYRSFHSGGYGQDALGMDPMMEHEMGGHHPGADYPVDGLPDLGHAQDLMDGLPPGDSNQLAWFDTDL | — (Interactions marked by — correspond to 60–100% of the wild type interaction) | — (Interactions marked by — correspond to 60–100% of the wild type interaction) | — (Interactions marked by — correspond to 60–100% of the wild type interaction)

Row | Molecule | Interaction With APC-20, share of wild type β-catenin interaction [2] | interaction with APC 20aa ([2]; β-catenin mutation, in words) | Interaction With Conductin, share of wild type β-catenin interaction [4] | interaction with conductin [4] | Interaction With LEF-1, share of wild type β-catenin interaction [1] | Interaction With APC-15, share of wild type β-catenin interaction [3] | Interaction With E-Cadherin, share of wild type β-catenin interaction [5]
4 | Trp 383: human β-catenin mutant, Trp 383 substituted by alanine (arm 6) (protein, left off: large carriers; small tags and cut ends) LHNLSHHREGLLAIFKSGGIPALVKMLGSPVDSVLFYAITTLHNLLLHQEGAKMAVRLAGGLQKMVALLNKTNVKFLAITTDCLQILAYGNQESKLIILASGGPQALVNIMRTYTYEKLLWTTSRVLKVLSVCSSNKPAIVEAGGMQALGLHLTDPSQRLVQNCLATLRNLSDAATKQEGMEGLLGTLVQLLGSDDINVVTCAAGILSNLTCNNYKNKMMVCQVGGIEALVRTVLRAGDREDITEPAICALRHLTSRHQEAEMAQNAVRLHYGLPVVVKLLHPPSHWPLIKATVGLIRNLALCPANHAPLREQGAIPRLVQLLVRAHQDTQRRTSMGGTQQQFVEGVRMEEIVEGCTGALHILARDVHNRIVIRGLNTIPLFVQLLYSPIENIQRVAAGVLCELAQDKEAAEAIEAEGATAPLTELLHSRNEGVATYAAAVLFRMSEDKPQDYKKRLSVELTSSLFRTEPMAWNETADLGLDIGAQGEPLGYRQDDPSYRSFHSGGYGQDALGMDPMMEHEMGGHHPGADYPVDGLPDLGHAQDLMDGLPPGDSNQLAWFDTDL | 0% | no interaction with APC 20aa | — (Interactions marked by — correspond to 60–100% of the wild type interaction) | – | — (Interactions marked by — correspond to 60–100% of the wild type interaction) | 59% | — (Interactions marked by — correspond to 60–100% of the wild type interaction)
